Target: His-L1ICD, non-phosphorylated (intracellular domain of L1) (mouse, UniProt P11627 1144-1260)
Experiment: cell-based or functional assay

His-L1ICD, non-phosphorylated (intracellular domain of L1), sequence (P11627 1144-1260): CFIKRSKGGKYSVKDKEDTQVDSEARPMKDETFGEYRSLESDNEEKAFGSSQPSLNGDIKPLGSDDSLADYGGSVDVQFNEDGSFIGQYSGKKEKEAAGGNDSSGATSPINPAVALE

phosphorylation of L1ICD by CKII in vitro (densitometry of the phospho-L1ICD band, 0 to 180 min) after preincubation with GST-14-3-3ζ against GST alone: ~3 fold
B1: GST-14-3-3ζ (natural protein, UniProt P63104 1-245, looked up)
chain: MDKNELVQKAKLAEQAERYDDMAACMKSVTEQGAELSNEERNLLSVAYKNVVGARRSSWRVVSSIEQKTEGAEKKQQMAREYREKIETELRDICNDVLSLLEKFLIPNASQAESKVFYLKMKGDYYRYLAEVAAGDDKKGIVDQSQQAYQEAFEISKKEMQPTHPIRLGLALNFSVFYYEILNSPEKACSLAKTAFDEAIAELDTLSEESYKDSTLIMQLLRDNLTLWTSDTQGDEAEAGEGGEN

Source: publication PMC2956685, “The 14-3-3ζ Protein Binds to the Cell Adhesion Molecule L1, Promotes L1 Phosphorylation by CKII and Influences L1-Dependent Neurite Outgrowth” (PLoS ONE, 2010)
